The text below walks through data of IntAct's records for PubMed 12839993.

Sequences and labels used below:
B1: Cullin-1 (Arabidopsis thaliana (Mouse-ear cress)), Q94AH6 (parent)
chain: MERKTIDLEQGWDYMQTGITKLKRILEGLNEPAFDSEQYMMLYTTIYNMCTQKPPHDYSQQLYDKYREAFEEYINSTVLPALREKHDEFMLRELFKRWSNHKVMVRWLSRFFYYLDRYFIARRSLPPLNEVGLTCFRDLVYNELHSKVKQAVIALVDKEREGEQIDRALLKNVLDIYVEIGMGQMERYEEDFESFMLQDTSSYYSRKASSWIQEDSCPDYMLKSEECLKKERERVAHYLHSSSEPKLVEKVQHELLVVFASQLLEKEHSGCRALLRDDKVDDLSRMYRLYHKILRGLEPVANIFKQHVTAEGNALVQQAEDTATNQVANTASVQEQVLIRKVIELHDKYMVYVTECFQNHTLFHKALKEAFEIFCNKTVAGSSSAELLATFCDNILKKGGSEKLSDEAIEDTLEKVVKLLAYISDKDLFAEFYRKKLARRLLFDRSANDDHERSILTKLKQQCGGQFTSKMEGMVTDLTLARENQNSFEDYLGSNPAANPGIDLTVTVLTTGFWPSYKSFDINLPSEMIKCVEVFKGFYETKTKHRKLTWIYSLGTCHINGKFDQKAIELIVSTYQAAVLLLFNTTDKLSYTEILAQLNLSHEDLVRLLHSLSCAKYKILLKEPNTKTVSQNDAFEFNSKFTDRMRRIKIPLPPVDERKKVVEDVDKDRRYAIDAAIVRIMKSRKVLGHQQLVSECVEQLSRMFKPDIKAIKKRMEDLITRDYLERDKENPNMFRYLA

The variants in test [1] derive from B1. The conditions noted are these: with skp1a_arath SKP1A.
The test “iaa7_arath IAA7, Q38825” covers variants of B1. The settings on record: with iaa7_arath IAA7, Q38825.
Chain of iaa7_arath IAA7, Q38825 (Q38825 whole entry): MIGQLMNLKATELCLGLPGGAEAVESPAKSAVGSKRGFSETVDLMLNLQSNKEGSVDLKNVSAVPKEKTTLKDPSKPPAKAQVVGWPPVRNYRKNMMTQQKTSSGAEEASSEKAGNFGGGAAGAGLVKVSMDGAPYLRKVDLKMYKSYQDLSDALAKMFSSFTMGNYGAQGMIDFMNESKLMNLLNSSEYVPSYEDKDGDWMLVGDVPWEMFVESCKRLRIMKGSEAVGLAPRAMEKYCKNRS

On to F112V, for which the “effect of a mutation on the interaction” value in test [1] is “decreasing interaction”; with iaa7_arath IAA7, Q38825 it was “decreasing interaction”.

In the case of F112I, the “effect of a mutation on the interaction” value in test [1] is reported as “decreasing interaction”; in the test with iaa7_arath IAA7, Q38825 it was “decreasing interaction”.
